Reference: PMC4575469

test system: TetR; experiment: SPR; settings: streptavidin surface, promoters at 30-50 RU, TetR 4-62 nM, regeneration with 1 M NaCl and 1 M MgCl2, running buffer, pH and temperature not given in the …

How did the Kd turn out when “CGCGCGCCTTTCTGCGTTTATATACTAGAGTCCCTATCAGTGATAGAGATTGACATCCCTATCAGTGATAGATATAATGAGCACTACTAGAGTAGTGGAGGTTACTAGATGGTGAGCAAGGGCGAGGAGCTGTTCACCGGGGTGGTGCCCATCCTGCGCG (double strand) [L12 promoter]” was run?
Its Kd is 8 nM.

With “CGCGCGCCTTTCTGCGTTTATATACTAGAGTCCCTATCAGTGATAGAGATTGACATCCCTATCAGTGATAGATATAATGCGCACTACTAGAGTAGTGGAGGTTACTAGATGGTGAGCAAGGGCGAGGAGCTGTTCACCGGGGTGGTGCCCATCCTGCGCG (double strand) [L09 promoter]” as the sequence, how does the Kd read?
Its Kd is 6 nM.

Which Kd does the source give for “CGCGCGCCTTTCTGCGTTTATATACTAGAGTCCCTATCAGTGATAGAGATTGACATCCCTATCAGTGATAGATATAATGGGCACTACTAGAGTAGTGGAGGTTACTAGATGGTGAGCAAGGGCGAGGAGCTGTTCACCGGGGTGGTGCCCATCCTGCGCG (double strand) [L11 promoter]” here?
Its Kd is 6 nM.

How did the Kd turn out when “CGCGCGCCTTTCTGCGTTTATATACTAGAGTCCCTATCAGTGATAGAGATTGACATCCCTATCAGTGATAGATATAATGTGCACTACTAGAGTAGTGGAGGTTACTAGATGGTGAGCAAGGGCGAGGAGCTGTTCACCGGGGTGGTGCCCATCCTGCGCG (double strand) [L10 promoter]” was run?
The Kd was 5 nM.
